In patent publication US20250011363A1, “OPTIMIZED SHORTENED PEPTIDE THAT BINDS TO ACETYLCHOLINE RECEPTOR, AND USE THEREOF” (SKINMED CO., LTD., priority 2021, published 2025):

Each binder was assayed against acetylcholine receptor (assay: SPR, AchR immobilised, peptide 10 uM).
KKESHR [6mer-1-638] was tested, and the Binding affinity (RU) was 20 RU. RKMDAK [6mer-1-629] showed a Binding affinity (RU) of 11 RU. RRPTHK [6mer-1-656] gave a Binding affinity (RU) of 28 RU. RKKDMR [6mer-1-1098] gave a Binding affinity (RU) of 42 RU. RKYMWK [6mer-1-1073] gave a Binding affinity (RU) of 27 RU. Binder RRCTGK [6mer-1-646] has a Binding affinity (RU) of 33 RU. With RRCNNR [6mer-1-650] the Binding affinity (RU) was 18 RU. For KRDHIK [6mer-1-664], the Binding affinity (RU) was 26 RU. RKPKWR [6mer-1-661] gave a Binding affinity (RU) of 14 RU. RRPDIK [6mer-1-1078] gave a Binding affinity (RU) of 25 RU. In the case of RREMFK [6mer-1-641], the Binding affinity (RU) is reported as 21 RU. RKNMFR [6mer-1-655] showed a Binding affinity (RU) of 12 RU. In the case of KKPSVK [6mer-1-1075], the Binding affinity (RU) is reported as 38 RU. For KKTMWR [6mer-1-1090], the Binding affinity (RU) was 27 RU. In the case of KRNSAR [6mer-1-1104], the Binding affinity (RU) is reported as 28 RU. For KKIWAR [6mer-1-1069], the Binding affinity (RU) was 23 RU. With KRTCGR [6mer-1-1074] the Binding affinity (RU) was 24 RU. In the case of KKNTMR [6mer-1-634], the Binding affinity (RU) is reported as 12 RU. In the case of RKFTKK [6mer-1-1089], the Binding affinity (RU) is reported as 31 RU. For RKHPVK [6mer-1-1079], the Binding affinity (RU) was 25 RU. KRYSMR [6mer-1-643] showed a Binding affinity (RU) of 31 RU. RRNCWR [6mer-1-640] gave a Binding affinity (RU) of 25 RU. In the case of RKYKDR [6mer-1-636], the Binding affinity (RU) is reported as 27 RU. In the case of RRCHVK [6mer-1-1095], the Binding affinity (RU) is reported as 27 RU. Work on RRETHK [6mer-1-1088] yielded a Binding affinity (RU) of 38 RU. Work on RRECDK [6mer-1-1101] yielded a Binding affinity (RU) of 37 RU. RRIAGK [6mer-1-649] gave a Binding affinity (RU) of 32 RU. With RKKEMK [6mer-1-658] the Binding affinity (RU) was 20 RU. KKPSKR [6mer-1-659] showed a Binding affinity (RU) of 29 RU. RKTWFR [6mer-1-644] was tested, and the Binding affinity (RU) was 31 RU. Work on KRFTKK [6mer-1-1102] yielded a Binding affinity (RU) of 35 RU. With KKYHVK [6mer-1-660] the Binding affinity (RU) was 31 RU. KKYNGK [6mer-1-642] showed a Binding affinity (RU) of 24 RU. In the case of RRKWGR [6mer-1-1077], the Binding affinity (RU) is reported as 24 RU. Binder KRFMNK [6mer-1-1106] has a Binding affinity (RU) of 39 RU. With KKFKDR [6mer-1-663] the Binding affinity (RU) was 26 RU. KKTTWK [6mer-1-635] was tested, and the Binding affinity (RU) was 33 RU. RKEDVK [6mer-1-1066] was tested, and the Binding affinity (RU) was 23 RU. For KRDKAK [6mer-1-1065], the Binding affinity (RU) was 23 RU. In the case of RRKHWK [6mer-1-1067], the Binding affinity (RU) is reported as 38 RU. KKTCDR [6mer-1-1082] gave a Binding affinity (RU) of 37 RU. In the case of KREAMK [6mer-1-1085], the Binding affinity (RU) is reported as 33 RU. Work on KKPWKR [6mer-1-1087] yielded a Binding affinity (RU) of 27 RU. Binder RKIDAK [6mer-1-633] has a Binding affinity (RU) of 16 RU. Work on RKEANK [6mer-1-1086] yielded a Binding affinity (RU) of 22 RU. KRYHIR [6mer-1-1068] was tested, and the Binding affinity (RU) was 31 RU. Work on RRFEFK [6mer-1-637] yielded a Binding affinity (RU) of 33 RU. Binder RKDTAR [6mer-1-632] has a Binding affinity (RU) of 17 RU. In the case of KRMEPR [6mer-1-630], the Binding affinity (RU) is reported as 14 RU. In the case of KKFWEK [6mer-1-648], the Binding affinity (RU) is reported as 17 RU. RKYNVR [6mer-1-647] gave a Binding affinity (RU) of 14 RU. Work on KKNAVR [6mer-1-1083] yielded a Binding affinity (RU) of 36 RU. For RKYHDK [6mer-1-1092], the Binding affinity (RU) was 43 RU. For KKHNMR [6mer-1-1080], the Binding affinity (RU) was 38 RU. RRKSDR [6mer-1-1093] gave a Binding affinity (RU) of 37 RU. KKDDGK [6mer-1-1091] showed a Binding affinity (RU) of 32 RU. For RKPEPR [6mer-1-1096], the Binding affinity (RU) was 23 RU. For KKTCDK [6mer-1-1070], the Binding affinity (RU) was 24 RU. For KKCTPR [6mer-1-1072], the Binding affinity (RU) was 36 RU. Binder RRKTDR [6mer-1-1099] has a Binding affinity (RU) of 24 RU. RRCTVR [6mer-1-657] gave a Binding affinity (RU) of 17 RU. For KRMTHR [6mer-1-653], the Binding affinity (RU) was 15 RU. KRPSNK [6mer-1-1081] showed a Binding affinity (RU) of 23 RU. With KKCCPK [6mer-1-1084] the Binding affinity (RU) was 25 RU. In the case of KRMNDR [6mer-1-654], the Binding affinity (RU) is reported as 23 RU. RRTTIR [6mer-1-645] gave a Binding affinity (RU) of 33 RU. With KRPNVR [6mer-1-639] the Binding affinity (RU) was 24 RU. For RKKEPK [6mer-1-1076], the Binding affinity (RU) was 43 RU. With RRMAIK [6mer-1-1094] the Binding affinity (RU) was 42 RU. Binder RKNCNK [6mer-1-1097] has a Binding affinity (RU) of 39 RU. KRICWK [6mer-1-651] gave a Binding affinity (RU) of 27 RU. KKMTER [6mer-1-662] gave a Binding affinity (RU) of 20 RU. Work on KRMSHK [6mer-1-1100] yielded a Binding affinity (RU) of 43 RU. Work on KREDNK [6mer-1-1103] yielded a Binding affinity (RU) of 27 RU. In the case of RRPEVK [6mer-1-652], the Binding affinity (RU) is reported as 26 RU. RRCTAR [6mer-1-1105] was tested, and the Binding affinity (RU) was 40 RU. KKCDGK [6mer-1-665] showed a Binding affinity (RU) of 21 RU. In the case of RKTKAK [6mer-1-1071], the Binding affinity (RU) is reported as 38 RU. Binder RRYSDR [6mer-1-631] has a Binding affinity (RU) of 13 RU.
